The labels stand for the following.
B1: GpH7-B3 variant P271_12R/GpL16-k0 (antibody, human IgG1, kappa)
heavy: not shown
light: DIVMTQSPLSLPVTPGEPASISCQASESLVHSNRNTYLHWYLQKPGQSPQLLIYKVSNRFSGVPDRFSGSGSGTDFTLKISRVEAEDVGVYYCSQNTHVPPTFGQGTKVEIERTVAAPSVFIFPPSDEQLKSGTASVVCLLNNFYPREAKVQWKVDNALQSGNSQESVTEQDSKDSTYSLSSTLTLSKADYEKHKVYACEVTHQGLSSPVTKSFNRGEC
notes: homodimerized IgG1, mutation in both H chains; also called Ho Ab
B2: GpH7-B3 variant S298_08L/GpL16-k0 (antibody, human IgG1, kappa)
heavy: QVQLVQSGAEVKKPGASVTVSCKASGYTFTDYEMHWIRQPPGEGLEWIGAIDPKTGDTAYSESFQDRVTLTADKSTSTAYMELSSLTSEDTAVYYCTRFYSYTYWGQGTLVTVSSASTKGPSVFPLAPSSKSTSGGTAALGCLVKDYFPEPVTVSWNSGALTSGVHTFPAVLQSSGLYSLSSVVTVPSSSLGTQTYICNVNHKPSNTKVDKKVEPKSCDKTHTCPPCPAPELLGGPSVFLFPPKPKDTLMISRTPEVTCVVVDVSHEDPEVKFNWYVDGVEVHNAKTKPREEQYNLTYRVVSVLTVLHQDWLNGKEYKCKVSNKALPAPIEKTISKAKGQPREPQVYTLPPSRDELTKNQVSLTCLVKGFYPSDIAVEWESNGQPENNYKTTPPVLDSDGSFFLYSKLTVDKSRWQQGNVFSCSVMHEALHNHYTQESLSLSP
light: B1 light
notes: as for B1
B3: GpH7-B3 variant S298_15Y/GpL16-k0 (antibody, human IgG1, kappa)
heavy: not shown
light: B1 light
notes: as for B1
B4: GpH7-B3 variant P271_13S/GpL16-k0 (antibody, human IgG1, kappa)
heavy: not shown
light: B1 light
notes: as for B1
B5: GpH7-B3 variant S337_02A/GpL16-k0 (antibody, human IgG1, kappa)
heavy: not shown
light: B1 light
notes: as for B1
B6: GpH7-B3 variant S239_09D/GpL16-k0 (antibody, human IgG1, kappa)
heavy: not shown
light: B1 light
notes: as for B1
B7: GpH7-B3 variant Q295_05P/GpL16-k0 (antibody, human IgG1, kappa)
heavy: not shown
light: B1 light
notes: as for B1
B8: GpH7-B3 variant P271_20W/GpL16-k0 (antibody, human IgG1, kappa)
heavy: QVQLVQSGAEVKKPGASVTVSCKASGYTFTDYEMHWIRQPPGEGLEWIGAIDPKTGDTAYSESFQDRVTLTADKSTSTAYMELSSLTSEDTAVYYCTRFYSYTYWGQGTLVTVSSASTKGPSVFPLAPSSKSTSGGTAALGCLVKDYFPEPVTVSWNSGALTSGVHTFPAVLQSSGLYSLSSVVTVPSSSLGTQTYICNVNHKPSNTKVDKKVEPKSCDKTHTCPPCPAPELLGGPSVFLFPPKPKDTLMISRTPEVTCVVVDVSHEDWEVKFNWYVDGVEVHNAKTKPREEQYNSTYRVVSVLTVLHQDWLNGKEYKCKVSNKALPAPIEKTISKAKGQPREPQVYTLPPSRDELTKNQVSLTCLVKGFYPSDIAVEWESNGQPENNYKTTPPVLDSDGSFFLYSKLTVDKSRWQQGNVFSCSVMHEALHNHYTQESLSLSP
light: B1 light
notes: as for B1
B9: GpH7-B3 variant Q295_18N/GpL16-k0 (antibody, human IgG1, kappa)
heavy: not shown
light: B1 light
notes: as for B1
B10: GpH7-B3 variant S337_03V/GpL16-k0 (antibody, human IgG1, kappa)
heavy: not shown
light: B1 light
notes: as for B1
B11: GpH7-B3 variant Q295_04F/GpL16-k0 (antibody, human IgG1, kappa)
heavy: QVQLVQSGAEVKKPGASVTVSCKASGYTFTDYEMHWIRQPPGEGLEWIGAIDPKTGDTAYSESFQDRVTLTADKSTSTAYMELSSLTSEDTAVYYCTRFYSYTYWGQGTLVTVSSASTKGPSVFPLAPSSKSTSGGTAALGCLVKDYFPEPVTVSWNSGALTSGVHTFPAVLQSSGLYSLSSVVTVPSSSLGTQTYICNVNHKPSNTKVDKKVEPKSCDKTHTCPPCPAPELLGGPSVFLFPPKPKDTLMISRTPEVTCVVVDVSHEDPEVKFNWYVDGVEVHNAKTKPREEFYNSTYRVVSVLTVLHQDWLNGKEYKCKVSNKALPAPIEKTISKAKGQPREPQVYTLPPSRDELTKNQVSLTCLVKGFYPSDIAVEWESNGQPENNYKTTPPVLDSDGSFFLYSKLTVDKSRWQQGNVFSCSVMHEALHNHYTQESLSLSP
light: B1 light
notes: as for B1
B12: GpH7-B3 variant S239_01G/GpL16-k0 (antibody, human IgG1, kappa)
heavy: not shown
light: B1 light
notes: as for B1
B13: GpH7-B3 variant S298_18N/GpL16-k0 (antibody, human IgG1, kappa)
heavy: not shown
light: B1 light
notes: as for B1
B14: GpH7-B3 variant S298_14T/GpL16-k0 (antibody, human IgG1, kappa)
heavy: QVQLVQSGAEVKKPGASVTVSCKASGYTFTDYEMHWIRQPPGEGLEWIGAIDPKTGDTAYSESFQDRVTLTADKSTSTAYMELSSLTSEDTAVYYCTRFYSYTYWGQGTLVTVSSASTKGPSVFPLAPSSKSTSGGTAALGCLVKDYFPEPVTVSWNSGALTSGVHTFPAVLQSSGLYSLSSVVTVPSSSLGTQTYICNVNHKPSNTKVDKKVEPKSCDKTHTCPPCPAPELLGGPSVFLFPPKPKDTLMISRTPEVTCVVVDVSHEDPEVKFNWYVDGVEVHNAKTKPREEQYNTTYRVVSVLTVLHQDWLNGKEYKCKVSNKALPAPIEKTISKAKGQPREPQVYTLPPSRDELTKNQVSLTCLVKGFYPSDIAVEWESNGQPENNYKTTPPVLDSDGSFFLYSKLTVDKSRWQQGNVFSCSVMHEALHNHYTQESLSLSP
light: B1 light
notes: as for B1
B15: GpH7-B3 variant S267_02A/GpL16-k0 (antibody, human IgG1, kappa)
heavy: not shown
light: B1 light
notes: as for B1
B16: GpH7-B3 variant S298_16H/GpL16-k0 (antibody, human IgG1, kappa)
heavy: not shown
light: B1 light
notes: as for B1
B17: GpH7-B3 variant S324_20W/GpL16-k0 (antibody, human IgG1, kappa)
heavy: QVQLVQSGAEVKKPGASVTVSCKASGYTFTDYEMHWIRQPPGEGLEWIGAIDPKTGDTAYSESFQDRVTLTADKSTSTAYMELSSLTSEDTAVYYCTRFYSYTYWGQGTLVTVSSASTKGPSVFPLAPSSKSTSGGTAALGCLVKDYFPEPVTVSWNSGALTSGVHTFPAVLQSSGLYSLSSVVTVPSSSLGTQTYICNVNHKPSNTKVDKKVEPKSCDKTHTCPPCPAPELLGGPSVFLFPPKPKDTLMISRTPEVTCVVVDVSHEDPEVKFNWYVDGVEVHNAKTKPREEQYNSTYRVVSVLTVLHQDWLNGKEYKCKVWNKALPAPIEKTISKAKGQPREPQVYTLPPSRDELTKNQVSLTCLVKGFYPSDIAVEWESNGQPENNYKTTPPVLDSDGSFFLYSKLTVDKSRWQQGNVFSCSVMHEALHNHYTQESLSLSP
light: B1 light
notes: as for B1
B18: GpH7-B3 variant S337_01G/GpL16-k0 (antibody, human IgG1, kappa)
heavy: not shown
light: B1 light
notes: as for B1
B19: GpH7-B3 variant Q295_13S/GpL16-k0 (antibody, human IgG1, kappa)
heavy: not shown
light: B1 light
notes: as for B1
B20: GpH7-B3 variant S324_14T/GpL16-k0 (antibody, human IgG1, kappa)
heavy: not shown
light: B1 light
notes: as for B1
B21: GpH7-B3 variant S298_07I/GpL16-k0 (antibody, human IgG1, kappa)
heavy: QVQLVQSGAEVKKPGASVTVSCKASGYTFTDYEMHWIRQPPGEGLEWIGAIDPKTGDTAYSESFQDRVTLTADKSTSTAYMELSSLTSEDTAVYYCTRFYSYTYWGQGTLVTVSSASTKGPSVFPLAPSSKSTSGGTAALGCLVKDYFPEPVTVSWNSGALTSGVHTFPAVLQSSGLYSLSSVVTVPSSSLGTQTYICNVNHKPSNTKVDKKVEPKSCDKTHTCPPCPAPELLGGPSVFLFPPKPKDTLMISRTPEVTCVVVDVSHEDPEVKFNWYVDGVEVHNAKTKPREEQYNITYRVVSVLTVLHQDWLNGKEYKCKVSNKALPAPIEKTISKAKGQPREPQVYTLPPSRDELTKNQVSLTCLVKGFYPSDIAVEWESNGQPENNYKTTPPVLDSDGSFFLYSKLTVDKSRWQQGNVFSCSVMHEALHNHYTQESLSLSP
light: B1 light
notes: as for B1
B22: GpH7-B3 variant S324_19Q/GpL16-k0 (antibody, human IgG1, kappa)
heavy: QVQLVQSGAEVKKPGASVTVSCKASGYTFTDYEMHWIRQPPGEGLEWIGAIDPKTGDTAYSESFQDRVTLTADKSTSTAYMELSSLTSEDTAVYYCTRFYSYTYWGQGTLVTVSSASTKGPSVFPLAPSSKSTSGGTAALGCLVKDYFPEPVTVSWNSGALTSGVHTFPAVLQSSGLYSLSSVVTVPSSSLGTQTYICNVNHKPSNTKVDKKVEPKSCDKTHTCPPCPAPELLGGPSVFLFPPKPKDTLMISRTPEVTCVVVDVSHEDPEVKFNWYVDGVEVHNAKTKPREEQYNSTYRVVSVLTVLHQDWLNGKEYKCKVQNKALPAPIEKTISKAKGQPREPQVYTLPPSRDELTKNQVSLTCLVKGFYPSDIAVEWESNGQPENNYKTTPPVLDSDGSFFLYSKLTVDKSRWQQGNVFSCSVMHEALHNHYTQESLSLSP
light: B1 light
notes: as for B1
B23: GpH7-B3 variant S298_03V/GpL16-k0 (antibody, human IgG1, kappa)
heavy: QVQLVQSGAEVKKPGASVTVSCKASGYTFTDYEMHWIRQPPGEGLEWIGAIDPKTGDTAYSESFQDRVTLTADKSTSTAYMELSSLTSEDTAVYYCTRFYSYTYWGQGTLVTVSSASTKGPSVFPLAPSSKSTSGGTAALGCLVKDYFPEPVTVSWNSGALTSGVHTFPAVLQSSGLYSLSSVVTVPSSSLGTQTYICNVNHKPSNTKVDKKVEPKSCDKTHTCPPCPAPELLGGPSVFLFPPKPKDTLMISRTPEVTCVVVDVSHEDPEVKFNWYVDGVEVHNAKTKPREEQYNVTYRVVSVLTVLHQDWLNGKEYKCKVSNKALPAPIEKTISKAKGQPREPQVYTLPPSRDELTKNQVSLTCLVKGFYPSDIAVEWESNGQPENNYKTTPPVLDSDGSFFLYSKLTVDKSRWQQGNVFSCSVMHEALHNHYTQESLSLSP
light: B1 light
notes: as for B1
B24: GpH7-B3 variant S267_03V/GpL16-k0 (antibody, human IgG1, kappa)
heavy: not shown
light: B1 light
notes: as for B1
B25: GpH7-B3 variant S324_08L/GpL16-k0 (antibody, human IgG1, kappa)
heavy: not shown
light: B1 light
notes: as for B1
B26: GpH7-B3 variant S324_02A/GpL16-k0 (antibody, human IgG1, kappa)
heavy: not shown
light: B1 light
notes: as for B1
B27: GpH7-B3 variant Q295_02A/GpL16-k0 (antibody, human IgG1, kappa)
heavy: not shown
light: B1 light
notes: as for B1
B28: GpH7-B3 variant Q295_14T/GpL16-k0 (antibody, human IgG1, kappa)
heavy: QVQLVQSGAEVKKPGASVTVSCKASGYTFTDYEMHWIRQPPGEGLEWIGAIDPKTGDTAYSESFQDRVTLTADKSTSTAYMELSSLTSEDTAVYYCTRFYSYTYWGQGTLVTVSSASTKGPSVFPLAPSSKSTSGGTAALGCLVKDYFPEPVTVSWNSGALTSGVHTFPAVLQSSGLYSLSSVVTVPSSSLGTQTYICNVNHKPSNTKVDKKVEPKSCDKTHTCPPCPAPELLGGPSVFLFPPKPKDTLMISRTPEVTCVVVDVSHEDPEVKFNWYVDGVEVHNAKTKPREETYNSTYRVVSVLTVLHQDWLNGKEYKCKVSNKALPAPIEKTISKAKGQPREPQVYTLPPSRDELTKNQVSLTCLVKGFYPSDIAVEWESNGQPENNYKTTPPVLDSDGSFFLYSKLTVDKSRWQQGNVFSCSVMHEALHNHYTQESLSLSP
light: B1 light
notes: as for B1
B29: GpH7-B3 variant S267_01G/GpL16-k0 (antibody, human IgG1, kappa)
heavy: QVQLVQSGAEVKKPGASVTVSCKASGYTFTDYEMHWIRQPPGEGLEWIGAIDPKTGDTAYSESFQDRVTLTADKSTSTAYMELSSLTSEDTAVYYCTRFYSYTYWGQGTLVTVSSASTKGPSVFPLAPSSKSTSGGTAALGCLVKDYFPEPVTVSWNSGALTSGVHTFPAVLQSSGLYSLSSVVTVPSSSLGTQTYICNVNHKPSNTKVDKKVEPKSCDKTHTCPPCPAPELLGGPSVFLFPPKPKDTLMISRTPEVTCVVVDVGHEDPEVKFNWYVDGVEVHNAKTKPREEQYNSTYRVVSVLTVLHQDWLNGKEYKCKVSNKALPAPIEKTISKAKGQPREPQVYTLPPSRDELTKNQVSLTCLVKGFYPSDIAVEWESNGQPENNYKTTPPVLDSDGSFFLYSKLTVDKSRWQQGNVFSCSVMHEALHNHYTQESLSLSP
light: B1 light
notes: as for B1
B30: GpH7-B3 variant S298_10E/GpL16-k0 (antibody, human IgG1, kappa)
heavy: not shown
light: B1 light
notes: as for B1
B31: GpH7-B3 variant Q295_03V/GpL16-k0 (antibody, human IgG1, kappa)
heavy: not shown
light: B1 light
notes: as for B1
B32: GpH7-B3 variant S298_19Q/GpL16-k0 (antibody, human IgG1, kappa)
heavy: not shown
light: B1 light
notes: as for B1
B33: GpH7-B3 variant Q295_07I/GpL16-k0 (antibody, human IgG1, kappa)
heavy: not shown
light: B1 light
notes: as for B1
B34: GpH7-B3 variant S324_03V/GpL16-k0 (antibody, human IgG1, kappa)
heavy: not shown
light: B1 light
notes: as for B1
B35: GpH7-B3 variant S267_09D/GpL16-k0 (antibody, human IgG1, kappa)
heavy: not shown
light: B1 light
notes: as for B1
B36: GpH7-A5/GpH7-B3 variant P271_02A/GpL16-k0 (antibody, human IgG1, kappa)
heavy 1: not shown
heavy 2: not shown
light: B1 light
notes: heterodimerized IgG1, mutation in one H chain; also called He Ab
B37: GpH7-A5/GpH7-B3 variant A330_09D/GpL16-k0 (antibody, human IgG1, kappa)
heavy 1: not shown
heavy 2: not shown
light: B1 light
notes: as for B36
B38: GpH7-A5/GpH7-B3 variant E269_15Y/GpL16-k0 (antibody, human IgG1, kappa)
heavy 1: not shown
heavy 2: not shown
light: B1 light
notes: as for B36
B39: GpH7-A5/GpH7-B3 variant E269_04F/GpL16-k0 (antibody, human IgG1, kappa)
heavy 1: not shown
heavy 2: not shown
light: B1 light
notes: as for B36
B40: GpH7-A5/GpH7-B3 variant I336_01G/GpL16-k0 (antibody, human IgG1, kappa)
heavy 1: not shown
heavy 2: not shown
light: B1 light
notes: as for B36
B41: GpH7-A5/GpH7-B3 variant A330_08L/GpL16-k0 (antibody, human IgG1, kappa)
heavy 1: not shown
heavy 2: not shown
light: B1 light
notes: as for B36
B42: GpH7-A5/GpH7-B3 variant I336_02A/GpL16-k0 (antibody, human IgG1, kappa)
heavy 1: not shown
heavy 2: not shown
light: B1 light
notes: as for B36
B43: GpH7-A5/GpH7-B3 variant G236_20W/GpL16-k0 (antibody, human IgG1, kappa)
heavy 1: not shown
heavy 2: not shown
light: B1 light
notes: as for B36
B44: GpH7-A5/GpH7-B3 variant A327_09D/GpL16-k0 (antibody, human IgG1, kappa)
heavy 1: not shown
heavy 2: not shown
light: B1 light
notes: as for B36
B45: GpH7-A5/GpH7-B3 variant E269_08L/GpL16-k0 (antibody, human IgG1, kappa)
heavy 1: not shown
heavy 2: not shown
light: B1 light
notes: as for B36
B46: GpH7-A5/GpH7-B3 variant I336_04F/GpL16-k0 (antibody, human IgG1, kappa)
heavy 1: not shown
heavy 2: not shown
light: B1 light
notes: as for B36
B47: GpH7-A5/GpH7-B3 variant K326_14T/GpL16-k0 (antibody, human IgG1, kappa)
heavy 1: not shown
heavy 2: not shown
light: B1 light
notes: as for B36
B48: GpH7-A5/GpH7-B3 variant E333_13S/GpL16-k0 (antibody, human IgG1, kappa)
heavy 1: not shown
heavy 2: not shown
light: B1 light
notes: as for B36
B49: GpH7-A5/GpH7-B3 variant I336_06M/GpL16-k0 (antibody, human IgG1, kappa)
heavy 1: not shown
heavy 2: not shown
light: B1 light
notes: as for B36
B50: GpH7-A5/GpH7-B3 variant I336_18N/GpL16-k0 (antibody, human IgG1, kappa)
heavy 1: not shown
heavy 2: not shown
light: B1 light
notes: as for B36
B51: GpH7-A5/GpH7-B3 variant E269_06M/GpL16-k0 (antibody, human IgG1, kappa)
heavy 1: not shown
heavy 2: not shown
light: B1 light
notes: as for B36
B52: GpH7-A5/GpH7-B3 variant A330_14T/GpL16-k0 (antibody, human IgG1, kappa)
heavy 1: not shown
heavy 2: not shown
light: B1 light
notes: as for B36
B53: GpH7-A5/GpH7-B3 variant I336_03V/GpL16-k0 (antibody, human IgG1, kappa)
heavy 1: not shown
heavy 2: not shown
light: B1 light
notes: as for B36
B54: GpH7-A5/GpH7-B3 variant I336_10E/GpL16-k0 (antibody, human IgG1, kappa)
heavy 1: not shown
heavy 2: not shown
light: B1 light
notes: as for B36
B55: GpH7-A5/GpH7-B3 variant E333_01G/GpL16-k0 (antibody, human IgG1, kappa)
heavy 1: not shown
heavy 2: not shown
light: B1 light
notes: as for B36

In the first assay the target is T1, FcγRIa (human, UniProt P12314 16-292).
T1 construct: extracellular domain; soluble extracellular domain with C-terminal His tag, expressed in FreeStyle293 cells; also called FcgRI; FcgRIa
T1 sequence (P12314 16-292): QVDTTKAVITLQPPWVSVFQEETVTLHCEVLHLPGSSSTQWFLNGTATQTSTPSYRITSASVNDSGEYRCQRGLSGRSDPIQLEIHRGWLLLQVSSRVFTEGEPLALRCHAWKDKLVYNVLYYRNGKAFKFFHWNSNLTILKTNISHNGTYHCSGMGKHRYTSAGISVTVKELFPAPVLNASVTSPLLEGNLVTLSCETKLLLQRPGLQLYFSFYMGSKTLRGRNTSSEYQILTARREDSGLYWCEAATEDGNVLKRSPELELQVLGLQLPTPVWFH
Nature of the assay: SPR (Biacore), captured antibody, FcγRIa analyte; relative to HoCon Ab GpH7-B3/GpL16-k0 = 100. Background: SPR reads the build-up and loss of mass on a sensor chip optically.
Turning to B1, the Ho/Con_1a was 101 % of control. B2: the Ho/Con_1a was 104 % of control.

Take B3: the Ho/Con_1a was 103 % of control.

With B4, the Ho/Con_1a is 101 % of control.

As to B5, the Ho/Con_1a was 103 % of control. For the molecule B6, the Ho/Con_1a is 101 % of control. Turning to B7, the Ho/Con_1a was 101 % of control. As to B8, the Ho/Con_1a is 102 % of control.

Turning to B9, the Ho/Con_1a was 101 % of control. On to B10, for which the Ho/Con_1a was 105 % of control.

B11: the Ho/Con_1a was 100 % of control. On the same count and under the same terms, the figure for B12 is 101 % of control; for B13 it is 104 % of control. For the molecule B14, the Ho/Con_1a is 106 % of control.

With B15, the Ho/Con_1a is 108 % of control. Regarding B16, the Ho/Con_1a is 107 % of control. As for B17, the Ho/Con_1a was 112 % of control. As to B18, the Ho/Con_1a was 102 % of control. In the case of B19, the Ho/Con_1a is 101 % of control. Consider B20, for which the Ho/Con_1a is 112 % of control.

Regarding B21, the Ho/Con_1a is 103 % of control. B22: the Ho/Con_1a was 111 % of control. Same read-out and setting: the figure for B23 is 106 % of control; for B24 it is 102 % of control. In the case of B25, the Ho/Con_1a was 103 % of control. Turning to B26, the Ho/Con_1a was 103 % of control. For the molecule B27, the Ho/Con_1a is 104 % of control. As to B28, the Ho/Con_1a was 102 % of control. B29: the Ho/Con_1a was 102 % of control.

In the case of B30, the Ho/Con_1a was 106 % of control.

As to B31, the Ho/Con_1a was 102 % of control.

As for B32, the Ho/Con_1a is 105 % of control. In the case of B33, the Ho/Con_1a was 101 % of control. Turning to B34, the Ho/Con_1a is 103 % of control. Take B35: the Ho/Con_1a is 106 % of control.

In the next assay the target is T1, FcγRIa. As to the kind of experiment: SPR (Biacore), captured antibody, FcγRIa analyte; relative to HeCon Ab GpH7-A5/GpH7-B3/GpL16-k0 = 100.
Consider B36, for which the He/Con_1a is 104 % of control. Consider B37, for which the He/Con_1a is 109 % of control. With B38, the He/Con_1a is 106 % of control. Regarding B39, the He/Con_1a is 103 % of control. The same measure, in the same setting: the figure for B40 is 109 % of control; for B41 it is 107 % of control; for B42 it is 106 % of control. Still for that read-out and setting: the figure for B43 is 105 % of control. For B44, the He/Con_1a is 103 % of control. Take B45: the He/Con_1a is 104 % of control. B46: the He/Con_1a was 106 % of control. Turning to B47, the He/Con_1a was 104 % of control. B48: the He/Con_1a was 103 % of control. Same read-out and setting: with B49 the figure was 108 % of control; with B50, 108 % of control; with B51, 104 % of control. In the case of B52, the He/Con_1a is 105 % of control. Take B53: the He/Con_1a was 105 % of control. On the same count and under the same terms, with B54 the figure was 108 % of control. For B55, the He/Con_1a was 103 % of control.

Values taken from patent US20150344570A1 (published 2015).
